Results from patent US20210187106A1 (AstraZeneca / MedImmune, published 2021).

B1: h5D8 (humanized 5D8, H2L2 clone) (antibody, V domains shown)
VH: QVQLQESGGGLVKPGGSLRLSCAASGFTFSHAWMHWVRQAPGKGLEWVGQIKAKSDDYATYYAESVKGRFTISRDDSKNTLYLQMNSLKTEDTAVYYCTCWEWDLDFWGQGTMVTVSS
VL: DIVMTQTPLSSPVTLGQPASISCRSSQSLLDSDGHTYLNWLQQRPGQPPRLLIYSVSNLESGVPDRFSGSGAGTDFTLKISRVEAEDVGVYYCMQATHAPPYTFGQGTKLEIK
notes: Humanized IgG tested as a bivalent antibody; Only VH and VL are tied to h5D8 by name; also called G (H2L2); H5D8-1 IgG
B2: human Leukemia Inhibitory Factor (LIF), expression source not stated (ligand)
chain: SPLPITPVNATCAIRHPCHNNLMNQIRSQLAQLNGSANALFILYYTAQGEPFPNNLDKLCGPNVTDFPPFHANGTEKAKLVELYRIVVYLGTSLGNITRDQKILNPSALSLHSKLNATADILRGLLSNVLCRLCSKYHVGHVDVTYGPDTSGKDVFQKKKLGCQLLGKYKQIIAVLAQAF
notes: also called hLIF; human LIF

How the values were obtained:
[1] = target: B2; assay: cell-based or functional assay
[2] = target: T1, recombinant human LIF receptor (hLIFR) (human, UniProt P42702 45-833, limits assumed); assay: Octet RED96 control experiment, h5D8 captured on AHC biosensors
T1 sequence (looked up): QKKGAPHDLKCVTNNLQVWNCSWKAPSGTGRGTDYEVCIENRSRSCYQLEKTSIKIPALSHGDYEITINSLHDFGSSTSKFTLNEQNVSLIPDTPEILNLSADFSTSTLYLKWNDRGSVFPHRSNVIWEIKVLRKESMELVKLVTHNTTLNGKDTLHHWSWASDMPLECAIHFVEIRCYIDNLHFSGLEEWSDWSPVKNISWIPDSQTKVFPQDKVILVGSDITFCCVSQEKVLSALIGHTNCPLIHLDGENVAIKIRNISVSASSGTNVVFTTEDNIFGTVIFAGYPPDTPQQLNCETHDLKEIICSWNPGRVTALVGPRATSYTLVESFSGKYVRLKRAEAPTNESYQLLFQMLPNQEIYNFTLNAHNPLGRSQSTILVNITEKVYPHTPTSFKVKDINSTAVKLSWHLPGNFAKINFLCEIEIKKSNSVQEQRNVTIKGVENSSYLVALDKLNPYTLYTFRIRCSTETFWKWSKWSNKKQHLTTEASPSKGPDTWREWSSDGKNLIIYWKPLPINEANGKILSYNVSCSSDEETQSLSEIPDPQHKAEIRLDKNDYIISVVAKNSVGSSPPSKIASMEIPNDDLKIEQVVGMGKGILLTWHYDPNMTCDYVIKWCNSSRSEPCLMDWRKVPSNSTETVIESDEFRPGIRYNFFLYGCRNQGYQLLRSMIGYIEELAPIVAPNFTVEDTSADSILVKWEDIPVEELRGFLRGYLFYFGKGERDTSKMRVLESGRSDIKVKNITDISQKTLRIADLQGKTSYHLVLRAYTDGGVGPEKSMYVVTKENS
Description: Subsequently, the biosensors were dipped in different concentrations of LIFR.

human IL-6 (E. coli) = target: T2, human IL-6 (E. coli) (human, UniProt P05231 30-212, limits assumed); assay: BLI (Octet), h5D8 amine-coupled to AR2G biosensors, cytokine as analyte; table legend: ND = no binding
T2 construct: also called huIL-6 (E. coli)
T2 sequence (P05231 30-212 limits assumed): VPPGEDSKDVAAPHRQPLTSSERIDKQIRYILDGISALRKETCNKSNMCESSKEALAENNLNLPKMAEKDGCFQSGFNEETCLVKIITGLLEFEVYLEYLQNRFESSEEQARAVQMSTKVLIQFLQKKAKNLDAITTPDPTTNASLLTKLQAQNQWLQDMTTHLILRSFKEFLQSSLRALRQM
Protocol: Kinetics experiments were then performed with the following Dip and Read steps at 30° C., 1000rpm: vi) 60 seconds Baseline in 1× kinetics buffer; vii) 180 seconds Association of appropriate serial dilutions of a cytokine in 1× kinetics buffer; viii) 300 seconds Dissociation in 1× kinetics buffer; ix) Three Regeneration/Neutralization cycles alternating between 10 mM glycine pH 2.0 and 1× kinetics buffer respectively (5 seconds in each for 3 cycles). Following regeneration, the biosensors were reused for subsequent binding analyses.

recombinant human gp130 = target: T3, recombinant human gp130 (human, UniProt P40189 23-619, limits assumed); assay: ELISA, LIF pre-incubated with B09 and added to a plate coated with recombinant human gp130; the antibody part of the complex detected with peroxidase anti-rat IgG
T3 sequence (looked up): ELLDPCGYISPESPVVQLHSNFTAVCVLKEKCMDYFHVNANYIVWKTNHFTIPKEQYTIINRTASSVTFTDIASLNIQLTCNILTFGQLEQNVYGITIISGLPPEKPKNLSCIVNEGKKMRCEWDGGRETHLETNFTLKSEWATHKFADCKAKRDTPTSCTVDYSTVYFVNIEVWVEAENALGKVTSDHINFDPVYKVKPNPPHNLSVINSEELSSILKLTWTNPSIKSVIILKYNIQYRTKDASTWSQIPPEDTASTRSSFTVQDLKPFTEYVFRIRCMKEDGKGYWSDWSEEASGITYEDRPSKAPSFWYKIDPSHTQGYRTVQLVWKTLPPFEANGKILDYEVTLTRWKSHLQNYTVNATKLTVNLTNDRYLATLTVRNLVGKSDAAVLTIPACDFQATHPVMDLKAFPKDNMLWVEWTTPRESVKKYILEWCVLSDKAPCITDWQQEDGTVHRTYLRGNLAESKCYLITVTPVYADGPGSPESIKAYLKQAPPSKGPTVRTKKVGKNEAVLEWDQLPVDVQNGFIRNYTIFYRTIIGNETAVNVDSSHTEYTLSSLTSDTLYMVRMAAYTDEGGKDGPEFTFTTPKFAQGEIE

| Binder | IC50 for biological inhibition (pSTAT3, MSD assay) under serum starved conditions in U-251 cells [1] | binding result [2] | binding result (human IL-6 (E. coli)) | binding result (recombinant human gp130) |
| --- | --- | --- | --- | --- |
| B1 | 490 picomolar | no binding | no binding |  |
| B2 |  |  |  | binds |
